Source: EP4669352A1
Where two headings read alike, the source gives them in different places.

B1: MV33 (antibody, V domains shown)
VH: EAQLVESGGGLVHPGGSLRLSCEVSGFTFSNSWMNWVRQAPGKGLECVARIIRNADGETADYAASVRGRFTISRDDPENTLYLRMKSLKTEDTAVYYCTTVPPLSHLFFHETYYFDYWGQGVLVTVSS
VL: QAARTQSPSMSASPGQSVTISCTGTRNDIGGYNYVSWYQQYPGKAPKLMIYDVSKRPSGVSDRFSGSKSGNTASLTISGLQAEDEANYYCSSYAGSNTYVFGSGTKLTIL
B2: MV49 (antibody, V domains shown)
VH: QVQLQESGGGLVQPGGSLRLSCAASGFTFSNSWMNWVRQAPGKGPEWVARIKRKADGETADYAASVKGRFAVSRDDSKNTLYLQINSLKSEDTAVYYCTTVPPLYDLFYRGAYYFDSWGQGVLITVSS
VL: QPVLTQPPSVSGSPGQSVTISCTGTSSDIGGYKYVSWYQQHPGTAPKLMIYEVNKRPSGVSDRFSGSKSGNTASLTISGLQAEDEADYYCSAYSTSRTYIFGPGTRVTVL

Experiments:
[1] = target: D8 protein (vaccinia virus)
[2] = target: D8 protein (vaccinia virus); assay: BLI (Octet)
[3] = target: D8 protein (vaccinia virus); remark: listed apart in the source

| Binder | koff [1] | Kd [2] | Kd [3] |
| --- | --- | --- | --- |
| B1 | < 1e-07 s⁻¹ | < 0.001 nM |  |
| B2 |  |  | 0.011 nM |
